Data: paper PMC4856590 (Structure (London, England : 1993), 2016)
Where no end group is shown, it is not given here. The star is where a group is joined. FITC = O=C1OC2(c3ccc(O)cc3Oc3cc(O)ccc32)c2ccc(NC(=S)*)cc21

Tests used:
[1] = molecular target: T1, human COP1 β-propeller (376-731) (human, UniProt Q8NHY2 376-731); experiment: fluorescence polarisation
[2] = molecular target: T1, human COP1 β-propeller (376-731); experiment: fluorescence polarisation; remark: listed apart in the source

T1 sequence (Q8NHY2 376-731): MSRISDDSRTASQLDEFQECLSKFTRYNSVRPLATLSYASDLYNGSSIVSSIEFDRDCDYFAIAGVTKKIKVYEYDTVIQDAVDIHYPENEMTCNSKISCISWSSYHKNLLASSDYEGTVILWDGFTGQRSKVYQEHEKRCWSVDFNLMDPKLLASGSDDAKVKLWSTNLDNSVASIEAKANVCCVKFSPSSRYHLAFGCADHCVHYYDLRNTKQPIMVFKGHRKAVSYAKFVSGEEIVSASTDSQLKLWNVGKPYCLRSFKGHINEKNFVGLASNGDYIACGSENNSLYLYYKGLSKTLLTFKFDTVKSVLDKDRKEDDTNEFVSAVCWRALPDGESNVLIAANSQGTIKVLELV

Binder | Kd [1] [nM] | binding result [2]
{FITC}-SEIGTSDQIVPEYQEDSDI [FITC-SEIGTSDQIVPEYQEDSDI] | 250 ± 40 | 
Trib1 molecule containing residues 83-372 (domain or fragment, human, UniProt Q96RU8 83-372, looked up) GSAPGPSRIADYLLLPLAEREHVSRALCIHTGRELRCKVFPIKHYQDKIRPYIQLPSHSNITGIVEVILGETKAYVFFEKDFGDMHSYVRSRKRLREEEAARLFKQIVSAVAHCHQSAIVLGDLKLRKFVFSTEERTQLRLESLEDTHIMKGEDDALSDKHGCPAYVSPEILNTTGTYSGKAADVWSLGVMLYTLLVGRYPFHDSDPSALFSKIRRGQFCIPEHISPKARCLIRSLLRREPSERLTAPEILLHPWFESVLEPGYIDSEIGTSDQIVPEYQEDSDISSFFC |  | binds
